The text below walks through data of the nanobody polyreactivity screen of Harvey et al. (2022).

A short description of this data set: yeast display, Sf9 membrane polyspecificity reagent, FACS + sequencing; frameworks hold sequencing errors. The procedure, abridged:
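Synthetic nanobody libraries on Saccharomyces cerevisiae BJ5465 were galactose-induced for 36–48 hours, stained 1 hour at 4 °C with 10% biotinylated, detergent-solubilized Sf9 membrane reagent and enriched on streptavidin microbeads. FACS then separated cells into low and high (top ~1%) gates by anti-HA (expression) and streptavidin (reagent binding) fluorescence. Genes were colony-PCR amplified, MiSeq 2 × 250 sequenced and CDR-length filtered. A clone's polyreactivity label is that of its gate of origin.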
For the sequence “QVQLVESGGGLVQAGGSLRLSCAASGFTLTGNAMGWYRQAPGKERELVAAISRNGGSTFYADSVKGRFTISRDNAKNTVYLQMNSLKPEDTAVYYCNASRYRHSAYKYDSWGQGTQVTVSS”, the “polyreactivity (PSR sort gate)” value is “high polyreactivity”.

For “QVQLVESGGGLVQAGGSLRLSCAASGFTLTSYAMGWYRQAPGKERELVAGISRGGITYYADSVKGRFTISRDNAKNTVYLQMNSLKPEDTAVYYCNARRTRRWPTTPEFTNFGYWGQGTQVTVSS”, the “polyreactivity (PSR sort gate)” value is “high polyreactivity”.

Turning to “QVQLVESGGGLVQAGGSLRLSCAASGFTLVKYVMGWYIQAPGKEREFVATIRRRGGNTYYADSVKGRFTISRDNAKNTVYLQMNSLKPEDTAVYYCAAKKRSDLRTGDMEYWGQGTQVTVSS”, the “polyreactivity (PSR sort gate)” value is “high polyreactivity”.

Regarding “QVQLVESGGGLVQAGGSLRLSCAASGFTLWGYAMGWYRQAPGKERELVATISWSGGGTNYADSVKGRFTISRDNAKNTVYLQMNSLKPEDTAVYYCAAGQGSRNQYYYWGQGTQVTVSS”, the “polyreactivity (PSR sort gate)” value is listed as “high polyreactivity”.

As for “QVQLVESGGGLVQAGGSLRLSCAASGFTLYAYVMGWYRQAPGKERDLVAAISRSGGSTYYADSVKGRFTISRDNAKNTVYLQMNSLKPEDTAVYYCAAQYKRYHRLYGYWGQGTQVTVSS”, the “polyreactivity (PSR sort gate)” value was “high polyreactivity”.

Take “QVQLVESGGGLVQAGGSLRLSCAASGFTLYGYAMGWYRQAPGKERELVAGIRYSGGRTYYADSVKGRFTISRDNAKNTVYLEMNSLKPEDTAVYYCAAVFKLSSSFYYWGQGTQVTVSS”: the “polyreactivity (PSR sort gate)” value was “high polyreactivity”.

With “QVQLVESGGGLVQAGGSLRLSCAASGFTLYPYAMGRYRKAPGKERELVAAISSSSGSTYYADSVKGRFTISRDNAKNTVYVQMNSLKPDDTAVYYCARDSGYYWYYRYGYWGQGTQVTVSS”, the “polyreactivity (PSR sort gate)” value is given as “high polyreactivity”.

“QVQLVESGGGLVQAGGSLRLSCAASGFTLYRYAMGWYRQAPAKERELVAANNSRGGSTYYADSVKGRFTISRDNAKITVYLQMISLKPDDTAVYYCNARRIRGGVRLTSPFYYWGQGTHVTVSS”: the “polyreactivity (PSR sort gate)” value is “high polyreactivity”.

In the case of “QVQLVESGGGLVQAGGSLRLSCAASGFTLYRYAMVWYRQAPGKERELVAAISRGSSTNYADSVKGRFTISRDNAKNTVYLQMNSLKPEDTAVYYCAARIVTLGSSRARSFTEYYWGQGTQVTVSS”, the “polyreactivity (PSR sort gate)” value is given as “high polyreactivity”.

Regarding “QVQLVESGGGLVQAGGSLRLSCAASGFTLYRYVMGWYRQAPGKERELVAAITWSGGSTYYADSVKGRFTISRDNAKNTVYLQMNSLKPEDTAVYYCAARLNVRGWGQGTQVTVSS”, the “polyreactivity (PSR sort gate)” value is on record as “low polyreactivity”.

As to “QVQLVESGGGLVQAGGSLRLSCAASGFTLYSYAMGWYRQAPGKERELVARISRSGGRTYYADSVKGRFTISRDNAKNTVYLQMNSLKPEDTAVYYGNARSLYYSYDYWGQGTQVTVSS”, the “polyreactivity (PSR sort gate)” value is “high polyreactivity”.

On to “QVQLVESGGGLVQAGGSLRLSCAASGFTLYYYAMGWYRQAPGKERELVAAIRSGGRTYYADSVKGRFTISRDNAKNTVYLQMNSLKPEDTAVYYCAARYRVYRGSRGITDYGYWGQGTQVTVSS”, for which the “polyreactivity (PSR sort gate)” value is given as “high polyreactivity”.

For the sequence “QVQLVESGGGLVQAGGSLRLSCAASGFTSAVYAMGWYRQAPGKERELVAAIRRGGSTNYADSVKGRFTISRDNAKNTVYLQMNSLKPEDTAVYYCAAAGRGWFGYWGQGTQVTVSS”, the “polyreactivity (PSR sort gate)” value was “high polyreactivity”.

In the case of “QVQLVESGGGLVQAGGSLRLSCAASGFTSAYNAMGWYRQAPGKERELVATISFRGSSTYYADSVKGRFTISRDNAKNTVYLQMNSQKPEDTAVYYCAADPYDARAVSEPVFFGHYDFWGQGTQVTVSS”, the “polyreactivity (PSR sort gate)” value is “low polyreactivity”.

For the sequence “QVQLVESGGGLVQAGGSLRLSCAASGFTSGYNAMGWYRQAPGKERELVATITRGTRTYYADSVKGRFTISRDNAKNTVYLQMNSLKPEDTAVYYCNARVYYKTYGGYYSWGQGTQVTVSS”, the “polyreactivity (PSR sort gate)” value is reported as “high polyreactivity”.

On to “QVQLVESGGGLVQAGGSLRLSCAASGFTSNEYAMGWYRPAAGTERELVAAISKSGGRTYYADSVKGRFTISRDNAKNTVYLQMNSLKPEDTAVYYCGKRRNTTYYAGGFDYWGQGTKVTVSS”, for which the “polyreactivity (PSR sort gate)” value was “high polyreactivity”.
